Experimental data taken from article PMC8994517 (Nature, 2021).

Molecular target: Human Hsp90α (human, UniProt P07900 1-732)
Test: cryo-EM structure

B1: Human p23 (natural protein, UniProt Q15185 1-160, looked up)
chain: MQPASAKWYDRRDYVFIEFCVEDSKDVNVNFEKSKLTFSCLGGSDNFKHLNEIDLFHCIDPNDSKHKRTDRSILCCLRKGESGQSWPRLTKERAKLNWLSVDFNNWKDWEDDSDEDMSNFDRFSEMMNNMGGDEDVDLPEVDGADDDSQDSDDEKMPDLE
stoichiometry N: 1 p23 per Hsp90 dimer
